Laboratory results: the supplement of paper PMC11780869

Tested on: Bacillus subtilis
Assay: cleaved RNA product abundance (RNA/gDNA barcode ratio) relative to median wild-type variant (ratio to wild type); higher = more accumulation of the downstream cleavage product
Details: cleavage site: cggR-gapA (positions -7 to +36 mutated)
Method in brief: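 Cleaved product abundance was measured with barcoded reporter mRNAs (truncated aprE or tetM) carrying mutagenized RNase Y cleavage-site windows in the B. subtilis chromosome. Cultures in LB at 37°C grew from OD600 0.0003 to 0.3. Gel-selected cleaved RNA was reverse transcribed and barcode-sequenced with genomic DNA barcodes, and the RNA:gDNA barcode ratio per construct was scaled to the median construct bearing the unmutated site.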

[1] = experiment (reporter, strain, medium): exp 2b: truncated aprE reporter, strain BJT200
[2] = experiment (reporter, strain, medium): exp 4a: truncated aprE reporter, strain BJT201 with 2% xylose (RNase J1 expressed)

## ACAGACGAAGGAGCCGCAAAGATGTTATTAATGGATGAATAATCCCTCAATATAAATATCTCTCACTTATTTAAA
[1]
  cleaved RNA product abundance: 0.131
[2]
  cleaved RNA product abundance: 0.135

## ACAGACGAAGGAGCCGCAAAGATGTTATTACGGGATGAATAATCCCTCAATATAAATATCTCTCACTTATTTAAA
[1]
  cleaved RNA product abundance: 0.369
[2]
  cleaved RNA product abundance: 0.401

## ACAGACGAAGGAGCCGCAAAGATGTTATTATGGGATGAATAATCCCTCAATATAAATATCTCTCACTTATTTAAA
[2]
  cleaved RNA product abundance: 0.343

## ACAGACGAAGGAGCCGCAAAGATTTTATTAAGGGATGAATAATCCCTCAATATAAATATCTCTCACTTATTTAAA
[1]
  cleaved RNA product abundance: 1.07
[2]
  cleaved RNA product abundance: 0.974

## ACAGACGAAGGAGCCGCAAAGCAATTATTAAGGGATGAATAATCCCTCAATATAAATATCTCTCACTTATTTAAA
[2]
  cleaved RNA product abundance: 0.718

## ACAGACGAAGGAGCCGCAAAGCAGTTAATAAGGGATGAATAATCCCTCAATATAAATATCTCTCACTTATTTAAA
[2]
  cleaved RNA product abundance: 0.298

## ACAGACGAAGGAGCCGCAAAGCAGTTATTAAAGGATGAATAATCCCTCAATATAAATATCTCTCACTTATTTAAA
[1]
  cleaved RNA product abundance: 0.136

## ACAGACGAAGGAGCCGCAAAGCAGTTATTAAGGAATGAATAATCCCTCAATATAAATATCTCTCACTTATTTAAA
[2]
  cleaved RNA product abundance: 0.0974

## ACAGACGAAGGAGCCGCAAAGCAGTTATTAAGGGAAGAATAATCCCTCAATATAAATATCTCTCACTTATTTAAA
[2]
  cleaved RNA product abundance: 0.561

## ACAGACGAAGGAGCCGCAAAGCAGTTATTAAGGGATAAATAATCCCTCAATATAAATATCTCTCACTTATTTAAA
[2]
  cleaved RNA product abundance: 0.625

## ACAGACGAAGGAGCCGCAAAGCAGTTATTAAGGGATGAAAAATCCCTCAATATAAATATCTCTCACTTATTTAAA
[2]
  cleaved RNA product abundance: 0.687

## ACAGACGAAGGAGCCGCAAAGCAGTTATTAAGGGATGAATAACCCCTCAATATAAATATCTCTCACTTATTTAAA
[2]
  cleaved RNA product abundance: 0.275

## ACAGACGAAGGAGCCGCAAAGCAGTTATTAAGGGATGAATAATCCATCAATATAAATATCTCTCACTTATTTAAA
[2]
  cleaved RNA product abundance: 0.172

## ACAGACGAAGGAGCCGCAAAGCAGTTATTAAGGGATGAATAATCCCTAAATATAAATATCTCTCACTTATTTAAA
[2]
  cleaved RNA product abundance: 0.591

## ACAGACGAAGGAGCCGCAAAGCAGTTATTAAGGGATGAATAATCCCTCAAAATAAATATCTCTCACTTATTTAAA
[2]
  cleaved RNA product abundance: 0.468

## ACAGACGAAGGAGCCGCAAAGCAGTTATTAAGGGATGAATAATCCCTCAACATAAATATCTCTCACTTATTTAAA
[2]
  cleaved RNA product abundance: 0.118

## ACAGACGAAGGAGCCGCAAAGCAGTTATTAAGGGATGAATAATCCCTCAATATAAATATCTCTCACTTATTTAAA
[1]
  cleaved RNA product abundance: 0.905
[2]
  cleaved RNA product abundance: 0.958
Experiment (reporter, strain, medium): exp 6: tetM reporter, strain 168
  cleaved RNA product abundance: 0.944

## ACAGACGAAGGAGCCGCAAAGCAGTTATTAAGGGATGAATAATCCCTCAATATATATATCTCTCACTTATTTAAA
[2]
  cleaved RNA product abundance: 0.687

## ACAGACGAAGGAGCCGCAAAGCAGTTATTAAGGGATGAATAATCCTTCAATATAAATATCTCTCACTTATTTAAA
[2]
  cleaved RNA product abundance: 0.526

## ACAGACGAAGGAGCCGCAAAGCAGTTATTAAGGGATGAATAATCGCTCAATATAAATATCTCTCACTTATTTAAA
[1]
  cleaved RNA product abundance: 0.083

## ACAGACGAAGGAGCCGCAAAGCAGTTATTAAGGGATGAATATTCCCTCAATATAAATATCTCTCACTTATTTAAA
[1]
  cleaved RNA product abundance: 0.832
[2]
  cleaved RNA product abundance: 0.898

## ACAGACGAAGGAGCCGCAAAGCAGTTATTAAGGGATGAGTAATCCCTCAATATAAATATCTCTCACTTATTTAAA
[2]
  cleaved RNA product abundance: 0.658

## ACAGACGAAGGAGCCGCAAAGCAGTTATTAAGGGATGCATAATCCCTCAATATAAATATCTCTCACTTATTTAAA
[1]
  cleaved RNA product abundance: 0.0725

## ACAGACGAAGGAGCCGCAAAGCAGTTATTAAGGTATGAATAATCCCTCAATATAAATATCTCTCACTTATTTAAA
[2]
  cleaved RNA product abundance: 0.0937

## ACAGACGAAGGAGCCGCAAAGCAGTTATTAAGTGATGAATAATCCCTCAATATAAATATCTCTCACTTATTTAAA
[2]
  cleaved RNA product abundance: 0.0809

## ACAGACGAAGGAGCCGCAAAGCAGTTATTAATGGATGAATAATCCCTCAATATAAATATCTCTCACTTATTTAAA
[2]
  cleaved RNA product abundance: 0.171
